Experimental data reported in article PMC8809517, “Cofactor-independent RNA editing by a synthetic S-type PPR protein”.

T1: GFP-9S library array, motif 4 ND D124S (synthetic construct, D124S)
T1 chain: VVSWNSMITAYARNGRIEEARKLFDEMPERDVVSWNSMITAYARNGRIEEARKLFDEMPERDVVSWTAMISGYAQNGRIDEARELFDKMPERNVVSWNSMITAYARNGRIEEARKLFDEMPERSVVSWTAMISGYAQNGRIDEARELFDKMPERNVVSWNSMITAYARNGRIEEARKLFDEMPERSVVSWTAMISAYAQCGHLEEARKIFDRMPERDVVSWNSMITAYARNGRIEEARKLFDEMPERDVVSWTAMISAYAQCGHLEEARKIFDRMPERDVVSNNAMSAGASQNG

T2: 9S-E2 (synthetic construct)
T2 chain: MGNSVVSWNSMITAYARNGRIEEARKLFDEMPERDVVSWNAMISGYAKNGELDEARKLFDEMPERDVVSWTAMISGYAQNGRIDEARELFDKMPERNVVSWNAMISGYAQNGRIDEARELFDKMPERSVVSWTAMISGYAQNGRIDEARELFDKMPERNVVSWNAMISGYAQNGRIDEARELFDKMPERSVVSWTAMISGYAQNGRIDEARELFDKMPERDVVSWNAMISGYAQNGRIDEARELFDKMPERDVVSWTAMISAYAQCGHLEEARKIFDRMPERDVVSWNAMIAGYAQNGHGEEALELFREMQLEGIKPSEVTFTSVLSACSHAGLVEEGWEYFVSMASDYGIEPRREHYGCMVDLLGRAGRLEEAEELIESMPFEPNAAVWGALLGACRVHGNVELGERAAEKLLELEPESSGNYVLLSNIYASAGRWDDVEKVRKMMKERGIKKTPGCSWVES

T3: 9S-S2 PPR (synthetic construct)
T3 chain: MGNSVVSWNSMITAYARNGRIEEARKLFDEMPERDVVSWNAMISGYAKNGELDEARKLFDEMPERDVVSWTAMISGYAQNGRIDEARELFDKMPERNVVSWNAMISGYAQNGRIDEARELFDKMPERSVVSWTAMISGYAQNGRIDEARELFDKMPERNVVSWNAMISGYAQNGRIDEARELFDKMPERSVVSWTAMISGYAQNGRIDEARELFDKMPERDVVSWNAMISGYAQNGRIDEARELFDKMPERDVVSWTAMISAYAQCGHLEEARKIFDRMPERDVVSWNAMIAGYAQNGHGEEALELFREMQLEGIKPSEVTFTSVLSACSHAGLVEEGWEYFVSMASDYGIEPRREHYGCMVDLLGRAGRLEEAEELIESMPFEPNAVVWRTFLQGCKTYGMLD

T4: 9S (synthetic construct)
T4 chain: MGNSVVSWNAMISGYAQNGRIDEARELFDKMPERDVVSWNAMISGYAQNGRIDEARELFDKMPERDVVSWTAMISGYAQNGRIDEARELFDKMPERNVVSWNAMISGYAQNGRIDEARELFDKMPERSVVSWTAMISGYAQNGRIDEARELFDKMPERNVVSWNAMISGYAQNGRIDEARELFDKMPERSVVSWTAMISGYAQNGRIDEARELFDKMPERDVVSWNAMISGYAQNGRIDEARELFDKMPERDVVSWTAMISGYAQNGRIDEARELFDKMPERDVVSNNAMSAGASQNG

T5: 9P-S2 (synthetic construct)
T5 chain: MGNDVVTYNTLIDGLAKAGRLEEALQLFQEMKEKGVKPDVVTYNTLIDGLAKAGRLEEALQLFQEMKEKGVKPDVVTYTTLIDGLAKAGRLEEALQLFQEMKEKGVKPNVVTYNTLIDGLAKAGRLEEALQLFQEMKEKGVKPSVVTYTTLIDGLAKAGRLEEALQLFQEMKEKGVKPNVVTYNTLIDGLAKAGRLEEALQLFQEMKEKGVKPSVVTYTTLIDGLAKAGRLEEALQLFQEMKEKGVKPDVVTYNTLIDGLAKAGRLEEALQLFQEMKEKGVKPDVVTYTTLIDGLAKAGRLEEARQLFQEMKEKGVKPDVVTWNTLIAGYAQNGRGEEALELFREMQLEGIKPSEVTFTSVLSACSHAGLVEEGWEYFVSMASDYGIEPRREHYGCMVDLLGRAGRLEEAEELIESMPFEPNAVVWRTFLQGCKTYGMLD


Key:
[1] = biological target: T1, GFP-9S library array, motif 4 ND D124S; assay: high-throughput RNA pulldown from lysate on Ni-NTA beads; HRP: 50 mM Tris pH 8, 150 mM NaCl, 1 mM beta-mercaptoethanol, 50 ug/ml BSA, 3 ug/ml yeast RNA, 0.5% heparin; ITC and FP: Tris pH 8, 200 mM KCl, 5% glycerol; MST: 50 mM Tris pH 8, 200 mM NaCl, 1 mM DTT, BSA, heparin, 0.05% Tween 20; conditions: tags: N-terminal His-eGFP
9S-E2 = biological target: T2, 9S-E2; assay: microscale thermophoresis; HRP: 50 mM Tris pH 8, 150 mM NaCl, 1 mM beta-mercaptoethanol, 50 ug/ml BSA, 3 ug/ml yeast RNA, 0.5% heparin; ITC and FP: Tris pH 8, 200 mM KCl, 5% glycerol; MST: 50 mM Tris pH 8, 200 mM NaCl, 1 mM DTT, BSA, heparin, 0.05% Tween 20; conditions: protein: recombinant; tags: N-terminal TRX-His; label: 5' Cy5
9S-S2 PPR = biological target: T3, 9S-S2 PPR; assay: high-throughput RNA pulldown on Ni-NTA beads; HRP: 50 mM Tris pH 8, 150 mM NaCl, 1 mM beta-mercaptoethanol, 50 ug/ml BSA, 3 ug/ml yeast RNA, 0.5% heparin; ITC and FP: Tris pH 8, 200 mM KCl, 5% glycerol; MST: 50 mM Tris pH 8, 200 mM NaCl, 1 mM DTT, BSA, heparin, 0.05% Tween 20; conditions: protein: recombinant; tags: N-terminal TRX-His; label: 5' Cy5
9S = biological target: T4, 9S; assay: as above; conditions: protein: recombinant; tags: N-terminal His-eGFP; label: 5' Cy5
9P-S2 = biological target: T5, 9P-S2; assay: as above; conditions: protein: recombinant; tags: N-terminal TRX-His; label: 5' Cy5

| Binder | Kd ([1]; label: 5' IRDye 800CW) | Kd ([1]; label: 5' Cy5) | also measured |
| --- | --- | --- | --- |
| AUUAAACGUGA (ssRNA) [IR-rpoA-A] | 162 nM | – | – |
| AUUACACGUGA (ssRNA) [Cy5-rpoA] | – | 2.01 nM | Kd (9S-E2): 6.8 nM; Kd (9S-S2 PPR): 6.4 nM; Kd (9S): 12 nM; Kd (9P-S2): 68 nM |
| AUUAGACGUGA (ssRNA) [Cy5-rpoA-G] | – | 522 nM | – |
| AUUAUACGUGA (ssRNA) [IR-rpoA-U] | 5.07 nM | – | – |
